{"source": "patent US20120059148", "about": "(published 2012)"}
{"biological_target": "LDL receptor (cell surface) (UniProt P01130)", "sequence (P01130 22-788)": "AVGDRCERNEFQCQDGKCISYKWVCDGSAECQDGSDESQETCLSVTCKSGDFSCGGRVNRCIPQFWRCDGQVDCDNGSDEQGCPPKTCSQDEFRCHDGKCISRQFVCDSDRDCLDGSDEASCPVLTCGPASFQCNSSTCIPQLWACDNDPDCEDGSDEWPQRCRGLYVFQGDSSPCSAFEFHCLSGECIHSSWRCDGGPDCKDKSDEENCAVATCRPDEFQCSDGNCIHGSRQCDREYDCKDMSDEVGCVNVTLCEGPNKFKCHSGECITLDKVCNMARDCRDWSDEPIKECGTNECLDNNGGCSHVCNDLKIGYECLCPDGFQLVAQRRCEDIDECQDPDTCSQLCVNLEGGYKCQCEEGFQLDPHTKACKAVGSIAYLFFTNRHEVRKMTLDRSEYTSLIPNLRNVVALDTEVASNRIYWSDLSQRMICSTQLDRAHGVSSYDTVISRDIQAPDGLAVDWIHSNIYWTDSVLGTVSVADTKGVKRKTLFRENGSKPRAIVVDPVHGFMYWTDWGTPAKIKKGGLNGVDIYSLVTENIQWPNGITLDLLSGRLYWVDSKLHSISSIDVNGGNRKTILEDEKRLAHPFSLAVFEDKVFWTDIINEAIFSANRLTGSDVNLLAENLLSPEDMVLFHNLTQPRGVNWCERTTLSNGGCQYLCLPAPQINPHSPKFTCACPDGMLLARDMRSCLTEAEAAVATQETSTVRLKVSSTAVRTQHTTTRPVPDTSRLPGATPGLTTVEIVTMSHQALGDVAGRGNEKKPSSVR", "experiment": "other, cell binding, total binding double reciprocal plot", "units": {"Kd": "µM"}}
{"binder": "YKLEGTTRLTRKRGLKLATALS", "note": "[[Peptide D] nLDL]", "Kd": 3}
{"binder": "YKLQGTTRLTRKRGLKLATALS", "note": "[[Peptide C] nLDL]", "Kd": 7.7}
{"binder": "TGKRYRLKTLRTLKKTSLLEAA", "note": "[[Peptide E] nLDL]", "Kd": 15.2}
{"binder": "GTTRLTRKRGLKL", "note": "[[Peptide B] nLDL]", "Kd": 9.3}
